In US20210292396A1:

Assays:
Assay in all cases: cell-based or functional assay
[1] = target: Env of HIV isolate R1166.C1 (clade AE) (HIV)
[2] = target: HIV Env of isolate 231965.c01 (HIV)
[3] = target: HIV Env of isolate CAP45.G3 (HIV)
[4] = target: Env of HIV isolate Q769.d22 (clade A) (HIV)
[5] = target: Env of HIV isolate ZM55.28a (clade C) (HIV)
[6] = target: HIV Env of isolate ZM215.8 (HIV)
[7] = target: Env of HIV isolate DU422.01 (clade C) (HIV)
[8] = target: HIV Env of isolate ZM249.1 (HIV)
[9] = target: Env of HIV isolate MI369.A5 (clade A) (HIV)
[10] = target: Env of HIV isolate CNE4 (clade B) (HIV)
[11] = target: Env of HIV isolate 3637.v5.c3 (clade C) (HIV)
[12] = target: Env of HIV isolate T33-7 (clade AG) (HIV)
[13] = target: Env of HIV isolate CNE57 (clade B) (HIV)
[14] = target: Env of HIV isolate CH119.10 (clade BC) (HIV)
[15] = target: Env of HIV isolate HXB2.DG (clade B) (HIV)
[16] = target: Env of HIV isolate 3988.25 (clade B) (HIV)
[17] = target: HIV Env of isolate CH070.1 (HIV)
[18] = target: Env of HIV isolate 0815.v3.c3 (clade ACD) (HIV)
[19] = target: Env of HIV isolate 6101.10 (clade B) (HIV)
[20] = target: HIV Env of isolate X2088.c9 (HIV)
[21] = target: Env of HIV isolate C4118.09 (clade AE) (HIV)
[22] = target: HIV Env of isolate 191821.E6.1 (HIV)
[23] = target: Env of HIV isolate Q23.17 (clade A) (HIV)
[24] = target: Env of HIV isolate ZM249.1 (clade C) (HIV)
[25] = target: HIV Env of isolate CNE19 (HIV)
[26] = target: Env of HIV isolate X2278.C2.B6 (clade B) (HIV)
[27] = target: Env of HIV isolate HO86.8 (clade B) (HIV)
[28] = target: HIV Env of isolate ZM135.10a (HIV)
[29] = target: Env of HIV isolate 242-14 (clade AG) (HIV)
[30] = target: Env of HIV isolate AC10.29 (clade B) (HIV)
[31] = target: HIV Env of isolate ZA012.29 (HIV)
[32] = target: Env of HIV isolate C2101.c1 (clade AE) (HIV)
[33] = target: Env of HIV isolate 25711-2.4 (clade C) (HIV)
[34] = target: HIV Env of isolate CH117.4 (HIV)
[35] = target: Env of HIV isolate 6631.v3.c10 (clade C) (HIV)
[36] = target: HIV Env of isolate P1981.C5.3 (HIV)
[37] = target: 208-member cross-clade virus panel
[38] = target: Env of HIV isolate 3326.v4.c3 (clade CD) (HIV)
[39] = target: Env of HIV isolate ZM215.8 (clade C) (HIV)
[40] = target: Env of HIV isolate 269-12 (clade AG) (HIV)
[41] = target: Env of HIV isolate Q259.17 (clade A) (HIV)
[42] = target: Env of HIV isolate P0402.c2.11 (clade G) (HIV)
[43] = target: Env of HIV isolate ADA.DG (clade B) (HIV)

B1: ePGT121.18 (ePGT121.18.H1 VH and ePGT121.17.L1 VL) (antibody, V domains shown)
VH: QMQLQESGPGLVKPGETLSLTCSVSGASISSSYWSWLRETPGKGLEWIGYTHHSGDTNYAPSLKSRVHLGLHPSKNQVSLSLTSVTAADTAVYYCARTLHGRRIYGVVAFNEYYTYFYWPTWGKGTQVTVSS
VL: SDISVAPGETVRITCGGESIGSRAVQWYQHRPGQAPRLIIYNNQDRPPGIPERFSGSPDIDFGTTATLTISNVEAGDEATYYCHIWDSRRPTNWELGPGTTLTVL
[1]
  IC50, pseudovirus neutralization: > 50000 ng/mL
[2]
  IC80, pseudovirus neutralization (M1): > 50000 ng/mL
  IC80, pseudovirus neutralization (M2): > 50000 ng/mL
[3]
  IC80, pseudovirus neutralization (M1): 20600 ng/mL
  IC80, pseudovirus neutralization (M2): 47500 ng/mL
[4]
  IC50, pseudovirus neutralization: > 50000 ng/mL
[5]
  IC50, pseudovirus neutralization: 5 ng/mL
[6]
  IC80, pseudovirus neutralization (M1): 23 ng/mL
  IC80, pseudovirus neutralization (M2): 26 ng/mL
[7]
  IC50, pseudovirus neutralization: 6 ng/mL
[8]
  IC80, pseudovirus neutralization (M1): 992 ng/mL
  IC80, pseudovirus neutralization (M2): 874 ng/mL
[9]
  IC50, pseudovirus neutralization: 2 ng/mL
[10]
  IC50, pseudovirus neutralization: 2 ng/mL
[11]
  IC50, pseudovirus neutralization: > 50000 ng/mL
[12]
  IC50, pseudovirus neutralization: > 50000 ng/mL
[13]
  IC50, pseudovirus neutralization: 2 ng/mL
[14]
  IC50, pseudovirus neutralization: 4 ng/mL
[15]
  IC50, pseudovirus neutralization: 3 ng/mL
[16]
  IC50, pseudovirus neutralization: 3 ng/mL
[17]
  IC80, pseudovirus neutralization (M1): 2 ng/mL
  IC80, pseudovirus neutralization (M2): 2 ng/mL
[18]
  IC50, pseudovirus neutralization: 1 ng/mL
[19]
  IC50, pseudovirus neutralization: 1 ng/mL
[20]
  IC80, pseudovirus neutralization (M1): 5 ng/mL
  IC80, pseudovirus neutralization (M2): 9 ng/mL
[21]
  IC50, pseudovirus neutralization: > 50000 ng/mL
[22]
  IC80, pseudovirus neutralization (M1): 95 ng/mL
  IC80, pseudovirus neutralization (M2): 105 ng/mL
[23]
  IC50, pseudovirus neutralization: 2 ng/mL
[24]
  IC50, pseudovirus neutralization: 134 ng/mL
[25]
  IC80, pseudovirus neutralization (M1): 6 ng/mL
  IC80, pseudovirus neutralization (M2): 4 ng/mL
[26]
  IC50, pseudovirus neutralization: 1 ng/mL
[27]
  IC50, pseudovirus neutralization: > 50000 ng/mL
[28]
  IC80, pseudovirus neutralization (M1): 140 ng/mL
  IC80, pseudovirus neutralization (M2): 188 ng/mL
[29]
  IC50, pseudovirus neutralization: 17300 ng/mL
[30]
  IC50, pseudovirus neutralization: 1 ng/mL
[31]
  IC80, pseudovirus neutralization (M1): 6 ng/mL
  IC80, pseudovirus neutralization (M2): 7 ng/mL
[32]
  IC50, pseudovirus neutralization: > 50000 ng/mL
[33]
  IC50, pseudovirus neutralization: 2 ng/mL
[34]
  IC80, pseudovirus neutralization (M1): > 50000 ng/mL
  IC80, pseudovirus neutralization (M2): > 50000 ng/mL
[35]
  IC50, pseudovirus neutralization: 10 ng/mL
[36]
  IC80, pseudovirus neutralization (M1): 3 ng/mL
  IC80, pseudovirus neutralization (M2): 3 ng/mL
[37]
  % vs Neutralized, IC50 < 0.01 ug/ml: 56%
  % vs Neutralized, IC50 < 0.1 ug/ml: 66%
  % vs Neutralized, IC50 < 1.0 ug/ml: 71%
  % vs Neutralized, IC50 < 10 ug/ml: 76%
  % vs Neutralized, IC50 < 50 ug/ml: 78%
  % vs Neutralized, IC80 < 0.01 ug/ml (M1): 43.8%
  % vs Neutralized, IC80 < 0.01 ug/ml (M2): 38.5%
  % vs Neutralized, IC80 < 0.1 ug/ml (M1): 60.6%
  % vs Neutralized, IC80 < 0.1 ug/ml (M2): 59.6%
  % vs Neutralized, IC80 < 1.0 ug/ml (M1): 65.9%
  % vs Neutralized, IC80 < 1.0 ug/ml (M2): 65.9%
  % vs Neutralized, IC80 < 10 ug/ml (M1): 70.7%
  % vs Neutralized, IC80 < 10 ug/ml (M2): 69.7%
  % vs Neutralized, IC80 < 50 ug/ml (M1): 73.1%
  % vs Neutralized, IC80 < 50 ug/ml (M2): 72.6%
  Geometric Mean (IC50): 8.1 ng/mL
  Geometric Mean IC80 (M1): 17.7 ng/mL
  Geometric Mean IC80 (M2): 20.2 ng/mL
  Median IC50: 3 ng/mL
  Median IC80 (M1): 7 ng/mL
  Median IC80 (M2): 8 ng/mL
  Total VS Neutralized, IC50 < 0.01 ug/ml (viruses of 208): 116
  Total VS Neutralized, IC50 < 0.1 ug/ml (viruses of 208): 137
  Total VS Neutralized, IC50 < 1.0 ug/ml (viruses of 208): 148
  Total VS Neutralized, IC50 < 10 ug/ml (viruses of 208): 159
  Total VS Neutralized, IC50 < 50 ug/ml (viruses of 208): 162
  Total VS Neutralized, IC80 < 0.01 ug/ml (M1) (viruses of 208): 91
  Total VS Neutralized, IC80 < 0.01 ug/ml (M2) (viruses of 208): 80
  Total VS Neutralized, IC80 < 0.1 ug/ml (M1) (viruses of 208): 126
  Total VS Neutralized, IC80 < 0.1 ug/ml (M2) (viruses of 208): 124
  Total VS Neutralized, IC80 < 1.0 ug/ml (M1) (viruses of 208): 137
  Total VS Neutralized, IC80 < 1.0 ug/ml (M2) (viruses of 208): 137
  Total VS Neutralized, IC80 < 10 ug/ml (M1) (viruses of 208): 147
  Total VS Neutralized, IC80 < 10 ug/ml (M2) (viruses of 208): 145
  Total VS Neutralized, IC80 < 50 ug/ml (M1) (viruses of 208): 152
  Total VS Neutralized, IC80 < 50 ug/ml (M2) (viruses of 208): 151
[38]
  IC50, pseudovirus neutralization: 306 ng/mL
[39]
  IC50, pseudovirus neutralization: 6 ng/mL
[40]
  IC50, pseudovirus neutralization: 3 ng/mL
[41]
  IC50, pseudovirus neutralization: > 50000 ng/mL
[42]
  IC50, pseudovirus neutralization: 2 ng/mL
[43]
  IC50, pseudovirus neutralization: 2 ng/mL
